From paper doi:10.1101/2023.07.08.548221 come the findings set out here.

For the test, the target named is strep-CsoS1A (hexameric shell protein CsoS1A) (Halothiobacillus neapolitanus) (UniProt P45689). The experiment in a line: turbidity.
Chain of UniProt P45689 (P45689 whole entry): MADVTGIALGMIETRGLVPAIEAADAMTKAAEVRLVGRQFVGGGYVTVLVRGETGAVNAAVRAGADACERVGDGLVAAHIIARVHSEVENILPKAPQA

The substance “His-CsoS2B (full-length CsoS2, long form) (from UniProt O85041-1 1-869) (natural protein)” displayed a fold turbidity with CsoS1A against wtMR of 5 fold.
